Key:
Type in all cases: in vivo, C57BL/6 mice
[1] = tested on: murine model of respiratory inflammation (IT LPS); experiment: BALF neutrophil count in LPS-induced murine model of respiratory inflammation; conditions: all assessed timepoints (6, 24, 72 hours); FIG. 5
Description: (§1) At −1 h (1 hr before the lipopolysaccharide (LPS) administration), animals were treated with: Vehicle for groups 1 and 2 via an intravenous route (200 μL); dexamethasone (5 mg/kg) as a positive control (group 3) via an intraperitoneal (IP) route (5 mg/kg, 200 μL); MD31-170 for groups 4-6 via an intravenous (IV) route at the appropriate dosage (200 μL).
(§2) After administration of anesthesia by sodium pentobarbital, the mice underwent intra-tracheal (IT) instillation of a nonlethal dose of LPS from E. coli 0111: B4 (Sigma-Aldrich, St. Louis, MO, USA) at 5 mg/kg dissolved in 100 μl PBS to induce acute respiratory inflammation. LPS (Sigma L4391, O111: B4) lyophilized powder was resuspended in 0.9% saline to give aliquots at 2.5 mg/ml which were stored at […]. At time=0 h, animals in vehicle group 1 were administered PBS (40 μL) via an IT route and animals in groups 2-6 were administered LPS (40 μL) at 5 mg/kg by an IT route to induce acute respiratory inflammation. Termination occurred at either 6 h, 24 h or 72 h with each animal weighed at the endpoint.
(§3) Lungs were harvested from each animal and weighed. […] The cell pellet was resuspended in 100 μL PBS and the number of total cells was counted using Cell Counter model R1 (Olympus, Tokyo, Japan). […] Neutrophil counts were quantified using a light microscope by counting a total of 200 cells/slide at 40× magnification.

[2] = tested on: murine model of respiratory inflammation (IT LPS); experiment: Lung histological pathology (H&E, lung injury score) in LPS-induced murine model of respiratory inflammation
Description: as §1, §2
The whole lung was fixed in 10% Neutral Buffered Formalin (NBF) and embedded in paraffin and then cut into 4 μm sections. Then, the sections were deparaffinized and stained with hematoxylin and eosin (H&E) for histological evaluation.
The severity of lung tissue inflammation was evaluated using lung injury score as follows. The severity of lung damage was scored based on the following histologic features: alveolar congestion, hemorrhage, infiltration of neutrophils in airspace or vessel wall, and thickness of alveolar wall/hyaline membrane formation. Each item was graded on a five-point scale from 0 to 4:0 (minimal damage), 1 (mild damage), 2 (moderate damage), 3 (severe damage), and 4 (maximal damage).

[3] = tested on: murine model of respiratory inflammation (IT LPS); experiment: BALF cytokine analysis (MSD) in LPS-induced murine model of respiratory inflammation; conditions: IV, 1 h before LPS
Description: All animal experiments were performed in accordance with the guidelines of decreasing the amount of suffering, pain, and discomfort of the experimental animals. A total of 54 male C57BL/6 mice were used in this study. Mice between the ages of 7 to 8 weeks were obtained from IACUC approved laboratory animal supplier. Animals were acclimated for at least 4 days prior to the study. Animals were housed in a temperature-controlled room with a 12-hour light/dark cycle, with ad libitum access to water and irradiated laboratory chow throughout the study. Animals were individually identified by ear tags. Animals were weighed one day prior to the start of the study and stratified into 6 groups of 9 animals so that each group has roughly the same average weight. Animals were monitored for any form of discomfort as well as for clinical symptoms of distress or ambulatory discomfort.
A total of 54 male C57BL/6 mice (7 to 8 weeks old, body weight […]) were used in this study, as set out below in Table 2.
as §1, with “μL). […]” for “μL).”
as §3
BALF cytokines concentrations were evaluated from an aliquot of BALF using the 29-plex cytokine MSD Platform (Cat. K152167D) according to manufacturer's instruction.

[4] = tested on: murine model of respiratory inflammation (IT LPS); experiment: MPO levels of BALF in LPS-induced murine model of respiratory inflammation; conditions: groups 4, 5 and 6 (2.5, 25, 100 μg/animal IV) at 6 hours and 24 hours; FIG. 6
Description: as §1
After administration of anesthesia by sodium pentobarbital, the mice underwent intra-tracheal (IT) instillation of a nonlethal dose of LPS from E. coli 0111: B4 (Sigma-Aldrich, St. Louis, MO, USA) at 5 mg/kg dissolved in 100 μl PBS to induce acute respiratory inflammation. LPS (Sigma L4391, O111: B4) lyophilized powder was resuspended in 0.9% saline to give aliquots at 2.5 mg/ml which were stored at 20° C. […]
as §3
MPO levels were evaluated from an aliquot of BALF in an MPO assay using Abcam kit (Cat. Ab155458) according to manufacturer's instructions.

[5] = groups 4, 5 and 6 vs dexamethasone 5 mg/kg IP, FIGS. 7-9

B1: MD31-170: recombinant MayDay polypeptide comprising amino acids 31-170 of ovine decorin, expressed in BL21 E. coli (protein)
chain: DEASGIGPEERFHEVPELEPMGPVCPFRCQCHLRVVQCSDLGLEKVPKDLPPDTALLDLQNNKITEIKDGDFKNLKNLHTLILINNKISKISPGAFAPLVKLERLYLSKNQLKELPEKMPKTLQELRVHENEITKVRKSV
modifications: Ovis aries
notes: recombinant MayDay polypeptide comprising amino acids 31-170 of ovine decorin, expressed in BL21 E. coli
With B1 the “number of neutrophils in BALF” value [1] was “decreased significantly”, the “neutrophil score, inflammation score and interstitial inflammation score: dose dependence” value ([2]; 6, 24 and 72 hours post LPS-induction) was “dose dependent changes” and the “neutrophil score (histology)” value ([2]; 24 hours, group 6 (100 μg/mouse) compared to LPS control (group 2), FIG. 7B) was “statistically significant decreases”. For the same molecule, the “inflammation score (inflammation-neutrophilic alveolar score, histology)” value ([2]; 24 hours, group 6 (100 μg/mouse) compared to LPS control (group 2), FIG. 8B) was “statistically significant decreases”, the “interstitial inflammation score (histology)” value ([2]; 24 hours, group 6 (100 μg/mouse) compared to LPS control (group 2), FIG. 9B) was “statistically significant decreases” and the lung injury score ([2]; groups 4, 5 and 6 (2.5, 25, 100 μg/animal IV)) was “consistently and substantially decreased”. For the same molecule, the “pathological changes in the lung (alveolar wall not intact, interstitial edema, inflammatory cell infiltration)” value ([2]; groups 4, 5 and 6 (2.5, 25, 100 μg/animal IV), H&E) was “alleviated”, the “lung damage relative to dexamethasone treated animals (group 3)” value [2, 5] was “comparable or less than” and the “positive effect on lung pathology relative to positive control dexamethasone (group 3)” value [2, 5] was “comparable to or better than”. The “protein levels of TNF-α in BALF” value ([3]; 6 hours post-administration, compared to LPS control group (group 2), FIG. 2A) was “significantly decreased”, the “protein levels of IFN-γ in BALF” value ([3]; 24 hours post-administration, compared with LPS group (group 2), FIG. 3B) was “significantly decreased” and the “protein levels of IL-6 in BALF” value ([3]; 24 hours post-administration, compared with LPS group (group 2), FIG. 4B) was “significantly decreased”. The “myeloperoxidase (MPO) in BALF” value [4] was “significantly reduced”.
